The results in this text go back to PMC6771821, “Cryo‐EM structure of the MinCD copolymeric filament from Pseudomonas aeruginosa at 3.1 Å resolution” (Febs Letters, 2019).

The data set deals with the molecule itself. Description: cryo-EM structure; unsupported MinCD filaments in solution; MinC and MinD each 0.5 mg/mL combined in equal proportion in 20 mM HEPES-Na, 100 mM potassium acetate, 5 mM magnesium acetate, pH 7.0; 1 mM ATP, 15 min at room temperature; helical reconstruction.

B1: MinC from Pseudomonas aeruginosa, full-length, His6-tagged (natural protein, UniProt Q9HYZ7 1-263, looked up)
chain: MSQADLLDQDPVFQLKGSMLAVTILELAHNDLARLERQLADKVAQAPNFFRDTPLVMALDKLPEGEGRLDLPALLEVCRRHGLRTLAIRAGREEDIAAAQALDLPVLPPSGARERPLDIKDSAPRKPAEEPSPSAGEARPEPAKAEEKPAEPVSRPTKVVKTPVRGGMQIYAAGGDLIVLAAVSPGAELLADGNIHVYGPMRGRALAGVKGDATARIFCQQLAAELVSIAGNYKVAEDLRRSPQWGKAVHVSLSGDVLNITRL
notes: MinC (septum site-determining protein), Pseudomonas aeruginosa, residues 1-263, cloned into pET-15b; only residues 156-261 (MinC^C) are modelled in the cryo-EM map; the tag was not removed; also called MinC2 (dimer); source: E. coli C41(DE3), purified (HisTrap HP, dialysis); not shown: His6, N-terminal, kept
Turning to B1, the binding result is “binds”.
